The source of these data is patent US20150252107A1, “APLNR Modulators and Uses Thereof” (Regeneron Pharmaceuticals, Inc., priority 2013, published 2015).

The target in test [1] is T1, hAPLNR (Homo sapiens, UniProt P35414).
T1 construct: expressed in transfected cells
T1 sequence (P35414 1-380): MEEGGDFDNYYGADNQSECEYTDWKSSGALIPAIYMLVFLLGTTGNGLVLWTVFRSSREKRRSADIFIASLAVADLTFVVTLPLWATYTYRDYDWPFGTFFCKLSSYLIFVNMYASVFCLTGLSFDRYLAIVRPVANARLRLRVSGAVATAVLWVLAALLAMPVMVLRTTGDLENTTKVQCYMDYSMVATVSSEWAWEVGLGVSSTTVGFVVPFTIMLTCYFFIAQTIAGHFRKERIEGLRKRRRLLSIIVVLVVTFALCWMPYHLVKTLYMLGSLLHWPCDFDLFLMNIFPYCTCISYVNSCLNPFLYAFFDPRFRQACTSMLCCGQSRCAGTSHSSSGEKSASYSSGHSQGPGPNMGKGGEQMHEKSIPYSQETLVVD
The experiment in a line: CRE assay of modified apelin peptides in HEK293/CRE-luc/hAPLNR cells. The format is cell-based. The settings on record: Table 9; 5 μM forskolin. How it is done: After 5 hours of incubation at 37° C. in 5% CO2, luminescence was measured following the addition of One Glo reagent (Promega, #E6051) using a Victor X instrument (Perkin Elmer). The data were fit by nonlinear regression to a 4-parameter logistic equation with Prism 5 software (GraphPad).

The subject of another test is HEK293 parental cells. The experiment in a line: FACS binding to HEK293 parental cells. The following applies: 10 μg/mL antibody. The method, then:
Binding ratios for human APLNR binding to purified anti-APLNR monoclonal antibodies were determined by a fluorescence-activated cell sorting (FACS) binding assay. […] The resulting stable cell lines, HEK293/CRE-luc/hAPLNR and HEK293/CRE-luc/MfAPLNR, were maintained in DMEM containing 10% FBS, NEAA, and penicillin/streptomycin with either 100 μg/mL Hygromycin B for hAPLNR cells or 500 μg/mL G418 for MfAPLNR cells.
For the FACS analysis, HEK293 parental, HEK293/CRE-luc/hAPLNR, and, HEK293/CRE-luc/mfAPLNR cells were dissociated using Enzyme Free Dissociation reagent (#S-004, Millipore, Billerica, Mass., USA) and 10^6 cells/well were plated onto 96-well v-bottom plates in PBS containing 1% FBS. […] Cells were then filtered and analyzed on Accuri Flow Cytometer (BD Biosciences, San Jose, Calif., USA). Unstained and secondary antibody alone controls were also tested for binding to all cell lines. […] Geometric mean (Geom. mean) of fluorescence for each antibody was then normalized to geometric mean of unstained cells to obtain relative binding of antibody (binding ratios) per each cell type: HEK293 (parental), HEK293/CRE-luc/hAPLNR and HEK293/CRE-luc/MfAPLNR.
(Flow cytometry measures light scatter and fluorescence of single cells or particles in a stream.)

Test [2] concerns the target T1, hAPLNR. Put plainly: cyclic AMP (CRE-luciferase) assay, activation of hAPLNR in HEK293/CRE-luc/hAPLNR cells. It counts as cell-based. The following applies: % of maximum Apelin activation, without Apelin. How it is done: The ability of anti-APLNR antibodies to activate hAPLNR-mediated cell signaling was measured using a cyclic AMP assay. The hAPLNR is a 7-transmembrane G-protein coupled receptor (GPCR).
The resulting cell line, HEK293/CRE-luc/hAPLNR, was maintained in DMEM containing 10% FBS, NEAA, penicillin/streptomycin, and 100 μg/mL Hygromycin B.
Testing of antibodies included a no antibody control.
The results of all assays were analyzed using nonlinear regression (4-parameter logistics) within Prism 5 software (GraphPad).

The target in test [3] is T2, human APLNR (humanized APLNR mice) (Homo sapiens, UniProt P35414).
T2 construct: homozygous for expression of human APLNR in place of mouse APLNR (humanized APLNR mice); from tissue; host or cells: living humanized APLNR mouse pups (75% C57BL6 / 25% Sv129); read-out in the retina
T2 sequence (P35414 1-380): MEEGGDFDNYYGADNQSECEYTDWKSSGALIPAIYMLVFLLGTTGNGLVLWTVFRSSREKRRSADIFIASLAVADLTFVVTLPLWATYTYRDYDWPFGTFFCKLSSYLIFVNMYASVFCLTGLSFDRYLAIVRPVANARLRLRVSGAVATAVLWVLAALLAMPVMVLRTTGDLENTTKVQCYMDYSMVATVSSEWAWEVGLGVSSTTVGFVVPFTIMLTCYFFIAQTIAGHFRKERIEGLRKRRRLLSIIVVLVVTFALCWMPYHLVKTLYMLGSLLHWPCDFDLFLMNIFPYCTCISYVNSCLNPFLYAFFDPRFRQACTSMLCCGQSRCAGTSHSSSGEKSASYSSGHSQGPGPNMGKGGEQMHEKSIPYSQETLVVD
The experiment in a line: retinal vascular development (RVD) model in humanized APLNR mouse pups. It counts as in vivo. The method, then: To assess the in vivo characteristics of select anti-APLNR antibodies of the invention, their ability to block APLNR-mediated angiogenesis in the eye vasculature was measured.
A retinal vascular development (RVD) model was used to evaluate the effects of an antagonistic anti-APLNR antibody on blood vessel outgrowth in the normal developing retina of mouse pups that were of a mixed background strain (75% C57BL6 and 25% Sv129) and homozygous for expression of human APLNR in place of mouse APLNR (humanized APLNR mice). Pups were subcutaneously injected on postnatal day 2 (P2) with either 50 mg/kg of an anti-APLNR antagonist antibody, H2aM9232N, or an irrelevant human Fc (hFc) control. Reagents were masked and labeled as Solution A and Solution B to prevent experimenter bias. At postnatal day 5, tissue samples were collected and then fixed in PBS containing 4% paraformaldehyde. Fixed tissue samples were washed with PBS three times for 15 minutes, and subsequently stained with GS Lectin I (Vector Laboratories, #FL-1101) diluted 1:200 in 1×PBS containing 1% BSA in 0.25% Triton-X 100 overnight at 25° C. to visualize retinal vasculature. The following day, stained samples were rinsed with PBS three times for 15 minutes each, flat-mounted onto slides, and coverslips were subsequently mounted using Prolong Gold (Invitrogen, #P36930). Images were taken at 20 times magnification using an epi-fluorescent microscope (Nikon Eclipse 80). The vascularized areas in the retina were measured from acquired images from this assay using Adobe Photoshop CS6 extended. Statistical differences between the results obtained from the IgG control antibody and H2aM9232N treated samples were assessed using a two tailed, unpaired Student T-test (**, p<0.001). Only after retinal vasculature area measurements and statistical analysis were completed, the sample identities were unmasked.

Several values for one entry are separate records, joined by “and”; a condition that tells them apart may be missing. Equal entries are not always repeated. Entries after “also recorded” stand apart in the source; their conditions may differ. No end group written: not given here.

One may read the EC50 as the concentration at which the effect is half-maximal.

For the molecule `CSCC[C@H](NC(=O)[C@@H]1CCCN1C(=O)CNC(=O)[C@H](CCCCN)NC(=O)[C@H](Cc1c[nH]cn1)NC(=O)[C@H](CO)NC(=O)[C@H](CC(C)C)NC(=O)[C@H](CCCNC(=N)N)NC(=O)[C@@H]1CCCN1C(=O)[C@@H](N)CCCNC(=N)N)C(=O)N1CCC[C@H]1C(=O)O` [Apelin66-76], on hAPLNR [1], the response was half-maximal at 0.00519 nM (EC50).

Molecule `CSCC[C@H](NC(=O)[C@@H]1CCCN1C(=O)CNC(=O)[C@H](CCCCN)NC(=O)[C@H](Cc1c[nH]cn1)NC(=O)[C@H](CO)NC(=O)[C@H](CC(C)C)NC(=O)[C@H](CCCNC(=N)N)NC(=O)[C@@H]1CCCN1)C(=O)N1CCC[C@H]1C(=O)N[C@@H](Cc1ccccc1)C(=O)O` [Apelin-11, reference compound] gave an EC50 at hAPLNR [1] of 0.438 nM.

PRLSHKGPM [Apelin67-75] had an EC50 at hAPLNR [1] of 374 nM.

At hAPLNR [1], RPRLSHKGPM [Apelin66-75] came in with an EC50 of 0.00217 nM.

B1: H2aM9232N: antagonistic anti-APLNR antibody, HCVR/LCVR SEQ ID NOs 98/106, mouse IgG2a Fc (antibody, V domains shown)
VH: QVKLVESGGGVVQPGRSLRLSCAASGFTFSNYVIHWVRQAPGKGLEWVAVIWYDGSNKYYADSVKGRFTISRDNSKNTLYLQMNSLRAEDTAVYYCARDRVVRGVDYYYYYGLDVWGQGTSVTVSS
VL: EIVMTQSPATLSVSPGERATLSCRASQSVRSNLAWYQQKPGQAPRLLIYGASSRATGIPARFSGTGSGTEFTLTISSLQSDDFAVYYCQQYNKWPRTFGQGTKVEIK
modifications: mouse IgG2a Fc
On to B1, for which, in the test on HEK293 parental cells, the “Binding Ratio of Geom. Mean to Unstained Cells, HEK293 Parental” value is 6. Further, in the test with hAPLNR [2] (Table 6A), the “% Activation at 100 nM mAb (at 10 uM Forskolin)” value is “No Activation”. Further, the “% Activation at 500 nM mAb (at […] Forskolin)” value with hAPLNR [2] (Table 6B) is reported as “did not demonstrate any measurable activation; also recorded: No Activation”. Also, the “Retinal blood vessel outgrowth (mm^2), MEAN” value in test [3] (50 mg/kg s.c. on postnatal day 2, read at postnatal day 5) is reported as 2.84 mm^2. In test [3] (50 mg/kg s.c. on postnatal day 2, read at postnatal day 5, single eyes (OD/OS)), the “Retinal blood vessel outgrowth (mm^2), individual eye” value was 2.49 mm^2 and 3.04 mm^2 and 3.57 mm^2 and 3.32 mm^2 and 2.23 mm^2 and 2.36 mm^2. For the same molecule, in test [3] (single s.c. injection 50 mg/kg, postnatal day 5), the “mean reduction in retinal blood vessel outgrowth compared to control (hFc)” value is “approximately 30%”.
